Measured values reported in patent US20250320305A1 (Hoffmann-La Roche, published 2025).
Positions count from the first letter of the chain named. Numbers in names are those of the source.

B1: P1AE1702_Fab, humanized anti-FAP clone 212 variant with VL2G2a (Fab, V domains shown)
VH: EVQLLESGGGLVQPGGSLRLSCAASGYTLTDYNMDWVRQAPGKGLEWVGDIYPNTGGTIYNQKFKGRFTISIDKSKNTAYLQMNSLRAEDTAVYYCTRFRGIHYAMDYWGQGTTVTVSS
VL: DIQMTQSPSSLSASVGDRVTITCRASESVDNYGLSFINWFQQKPGQPPKLLIYGTSNRGSGVPSRFSGSGSGTDFTLTISSLQPEDFAMYFCQQSNEVPYTFGGGTKVEIK
notes: Fab
B2: P1AE1690_Fab, humanized anti-FAP clone 212 variant VH1G2a/VL1G1a (Fab, V domains shown)
VH: QVQLVQSGAEVKKPGASVKVSCKASGYTLTDYNMDWVRQAPGKSLEWIGDIYPNTGGTIYNQKFKGRVTMTIDKSTSTVYMELSSLRSEDTAVYYCTRFRGIHYAMDYWGQGTTVTVSS
VL: EIVLTQSPATLSLSPGERATLSCRASESVDNYGLSFINWFQQKPGQAPRLLIYGTSNRGSGIPARFSGSGSGTDFTLTISSLEPEDFAVYFCQQSNEVPYTFGGGTKVEIK
notes: Fab
B3: P1AE1689_Fab, humanized anti-FAP clone 212 variant VH1G1a/VL1G1a (Fab, V domains shown)
VH: B2 VH with K43Q, S44G, K74T
VL: B2 VL
notes: Fab
B4: P1AE1693_Fab, humanized anti-FAP clone 212 variant VH1G2a/VL1G2a (Fab, V domains shown)
VH: B2 VH
VL: B2 VL with A47P
notes: Fab
B5: P1AE2487, CD40 (P1AE0817) x FAP (4B9) (2+1) C-terminal crossfab fusion (bispecific antibody, human IgG1, kappa, L234A L235A)
light 1: EIVLTQSPGTLSLSPGERATLSCRASQSVTSSYLAWYQQKPGQAPRLLINVGSRRATGIPDRFSGSGSGTDFTLTISRLEPEDFAVYYCQQGIMLPPTFGQGTKVEIKSSASTKGPSVFPLAPSSKSTSGGTAALGCLVKDYFPEPVTVSWNSGALTSGVHTFPAVLQSSGLYSLSSVVTVPSSSLGTQTYICNVNHKPSNTKVDKKVEPKSC
light 2: DIVMTQTPLSLSVTPGQPASISCRSSQSLVHSNGNTFLHWYLQKPGQSPQLLIYTVSNRFSGVPDRFSGSGSGTDFTLKISRVEAEDVGVYFCSQTTHVPWTFGGGTKVEIKRTVAAPSVFIFPPSDEQLKSGTASVVCLLNNFYPREAKVQWKVDNALQSGNSQESVTEQDSKDSTYSLSSTLTLSKADYEKHKVYACEVTHQGLSSPVTKSFNRGEC
heavy 1: not shown
heavy 2: QVQLVQSGAEVKKPGASVKVSCKASGYSFTGYYIHWVRQAPGQSLEWMGRVIPNAGGTSYNQKFKGRVTLTVDKSISTAYMELSRLRSDDTAVYYCAREGIYWWGQGTTVTVSSASTKGPSVFPLAPSSKSTSGGTAALGCLVKDYFPEPVTVSWNSGALTSGVHTFPAVLQSSGLYSLSSVVTVPSSSLGTQTYICNVNHKPSNTKVDKKVEPKSCDKTHTCPPCPAPEAAGGPSVFLFPPKPKDTLMISRTPEVTCVVVDVSHEDPEVKFNWYVDGVEVHNAKTKPREEQYNSTYRVVSVLTVLHQDWLNGKEYKCKVSNKALGAPIEKTISKAKGQPREPQVCTLPPSRDELTKNQVSLSCAVKGFYPSDIAVEWESNGQPENNYKTTPPVLDSDGSFFLVSKLTVDKSRWQQGNVFSCSVMHEALHNHYTQKSLSLSPG
notes: bivalent for CD40, monovalent for FAP; also called CD40 x FAP (4B9) 2+1 crossfab
B6: anti-FAP antibody 4B9 (antibody, V domains shown)
VH: EVQLLESGGGLVQPGGSLRLSCAASGFTFSSYAMSWVRQAPGKGLEWVSAIIGSGASTYYADSVKGRFTISRDNSKNTLYLQMNSLRAEDTAVYYCAKGWFGGFNYWGQGTLVTVSS
VL: EIVLTQSPGTLSLSPGERATLSCRASQSVTSSYLAWYQQKPGQAPRLLINVGSRRATGIPDRFSGSGSGTDFTLTISRLEPEDFAVYYCQQGIMLPPTFGQGTKVEIK
B7: P1AE2734, CD40 (P1AE0817) x FAP (P1AE1689) (2+1) with different C-terminal crossfab fusion (bispecific antibody, human IgG1, kappa, L234A L235A)
light 1: EIVLTQSPATLSLSPGERATLSCRASESVDNYGLSFINWFQQKPGQAPRLLIYGTSNRGSGIPARFSGSGSGTDFTLTISSLEPEDFAVYFCQQSNEVPYTFGGGTKVEIKSSASTKGPSVFPLAPSSKSTSGGTAALGCLVKDYFPEPVTVSWNSGALTSGVHTFPAVLQSSGLYSLSSVVTVPSSSLGTQTYICNVNHKPSNTKVDKKVEPKSC
light 2: B5 light 2
heavy 1: not shown
heavy 2: B5 heavy 2
notes: bivalent for CD40, monovalent for FAP; also called VH-Ckappa fused to Fc
B8: P1AF0873, CD40 (P1AE0817) x FAP (P1AE1689) (1+1) C-terminal crossfab fusion (bispecific antibody, human IgG1, kappa, L234A L235A)
light 1: QVQLVQSGAEVKKPGASVKVSCKASGYTLTDYNMDWVRQAPGQGLEWIGDIYPNTGGTIYNQKFKGRVTMTIDTSTSTVYMELSSLRSEDTAVYYCTRFRGIHYAMDYWGQGTTVTVSSASVAAPSVFIFPPSDEQLKSGTASVVCLLNNFYPREAKVQWKVDNALQSGNSQESVTEQDSKDSTYSLSSTLTLSKADYEKHKVYACEVTHQGLSSPVTKSFNRGEC
light 2: B5 light 2 with E128R, Q129K
heavy: not shown
chain: not shown
B9: P1AE2302, CD40 (P1AE0817) x FAP (28H1) (2+1) C-terminal crossfab fusion (bispecific antibody, human IgG1, kappa, L234A L235A)
light 1: EVQLLESGGGLVQPGGSLRLSCAASGFTFSSHAMSWVRQAPGKGLEWVSAIWASGEQYYADSVKGRFTISRDNSKNTLYLQMNSLRAEDTAVYYCAKGWLGNFDYWGQGTLVTVSSASVAAPSVFIFPPSDEQLKSGTASVVCLLNNFYPREAKVQWKVDNALQSGNSQESVTEQDSKDSTYSLSSTLTLSKADYEKHKVYACEVTHQGLSSPVTKSFNRGEC
light 2: B5 light 2 with E128R, Q129K
heavy 1: not shown
heavy 2: B5 heavy 2 with K144E, K210E
B10: P1AA9663, CD40 (huCD40) x FAP (28H1) (2+2) C-terminal crossfab fusion (bispecific antibody, human IgG1, kappa, L234A L235A)
light 1: B9 light 1
light 2: DIQMTQSPSSLSASVGDRVTITCRSSQSLVHSNGNTFLHWYQQKPGKAPKLLIYTVSNRFSGVPSRFSGSGSGTDFTLTISSLQPEDFATYFCSQTTHVPWTFGQGTKVEIKRTVAAPSVFIFPPSDRKLKSGTASVVCLLNNFYPREAKVQWKVDNALQSGNSQESVTEQDSKDSTYSLSSTLTLSKADYEKHKVYACEVTHQGLSSPVTKSFNRGEC
heavy: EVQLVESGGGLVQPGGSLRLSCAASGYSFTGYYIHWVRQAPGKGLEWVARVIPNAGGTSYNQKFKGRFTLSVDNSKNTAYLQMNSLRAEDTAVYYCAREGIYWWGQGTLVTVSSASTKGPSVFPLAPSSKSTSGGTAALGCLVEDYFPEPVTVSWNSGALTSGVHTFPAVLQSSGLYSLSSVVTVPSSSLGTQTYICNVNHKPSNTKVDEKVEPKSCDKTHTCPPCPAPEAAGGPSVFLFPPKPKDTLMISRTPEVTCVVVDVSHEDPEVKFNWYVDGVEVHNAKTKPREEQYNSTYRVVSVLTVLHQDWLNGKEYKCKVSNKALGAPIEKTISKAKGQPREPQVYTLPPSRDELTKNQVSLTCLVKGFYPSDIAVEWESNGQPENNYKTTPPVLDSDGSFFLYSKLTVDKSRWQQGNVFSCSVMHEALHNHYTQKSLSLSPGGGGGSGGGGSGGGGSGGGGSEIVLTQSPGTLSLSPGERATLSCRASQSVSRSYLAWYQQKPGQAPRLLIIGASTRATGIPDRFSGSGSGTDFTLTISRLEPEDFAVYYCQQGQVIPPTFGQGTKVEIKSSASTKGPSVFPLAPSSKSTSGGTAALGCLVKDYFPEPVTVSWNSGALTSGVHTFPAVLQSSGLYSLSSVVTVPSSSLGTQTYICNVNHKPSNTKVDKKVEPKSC
B11: P1AE1003, humanized anti-CD40 antibody VH1b/VL1b, huIgG1_LALA_PG (antibody, V domains shown)
VH: QVQLVQSGAEVKKPGASVKVSCKASGYSFTGYYIHWVRQAPGKSLEWMGRVIPNAGGTSYNQKFKGRVTLTVDKSISTAYMELSRLRSDDTAVYYCAREGIYWWGQGTTVTVSS
VL: DIVVTQTPLSLSVTPGQPASISCRSSQSLVHSNGNTFLHWYLQKPGQSPQLLIYTVSNRFSGVPDRFSGSGSGTDFTLKISRVEAEDVGVYFCSQTTHVPWTFGGGTKVEIK
notes: huIgG1 with effector silent Fc (P329G, L234A, L235A)
B12: P1AE1006, humanized anti-CD40 antibody VH1c/VL1b, huIgG1_LALA_PG (antibody, V domains shown)
VH: B11 VH with K43Q, Q106H
VL: B11 VL
notes: as for B11
B13: P1AE1004, humanized anti-CD40 antibody VH1b/VL1c, huIgG1_LALA_PG (antibody, V domains shown)
VH: B11 VH
VL: B11 VL with I2V
notes: as for B11
B14: P1AE1005, humanized anti-CD40 antibody VH1b/VL1d, huIgG1_LALA_PG (antibody, V domains shown)
VH: B11 VH
VL: B11 VL with I2V, V109L
notes: as for B11
B15: P1AE1007, humanized anti-CD40 antibody VH1d/VL1b, huIgG1_LALA_PG (antibody, V domains shown)
VH: B11 VH with K43Q, T71S
VL: B11 VL
notes: as for B11

molecular target: T1, biotinylated recombinant human FAP (human, UniProt Q12884 26-760, biotinylated); test: SPR (Biacore)
T1 construct: also called biotinylated human FAP

Binder	Kd	T ½	koff	kon
B1	0.213 nM	108 min	0.000107 s⁻¹	502000 M⁻¹ s⁻¹
B2	0.114 nM	183 min	6.3e-05 s⁻¹	551000 M⁻¹ s⁻¹
B3	0.095 nM	274 min	4.21e-05 s⁻¹	443000 M⁻¹ s⁻¹
B4	0.135 nM	161 min	7.18e-05 s⁻¹	530000 M⁻¹ s⁻¹

molecular target: T2, human CD40 expressed on cells (human, UniProt P25942 21-277); test: flow cytometry, primary human B cells
T2 construct: also called huCD40; Raji cells
Method: Plates were centrifuged 5 minutes at 1700 rpm and supernatants were flicked off. […] All samples were resuspended in 50 μL/well of 4° C. cold FACS buffer containing the bispecific antigen binding molecules (primary antibody) or the isotype control antibody DP47 at the indicated range of concentrations (in duplicates) and incubated for 120 minutes at 4° C. Afterwards the cells were washed three times with 200 μL 4° C. cold FACS buffer. […] Data analysis was performed using the FlowJo version 10 software (FlowJo LLC).

Binder	EC50
B5	0.086 nM

molecular target: T3, human Fibroblast Activation Protein (FAP) expressed on cells (human, UniProt Q12884 1-760); test: flow cytometry, huFAP-transfected HEK cells
T3 construct: Cell-surface human FAP on transfected HEK or NIH/3T3 cells; also called huFAP; human FAP-transfected HEK cells
Method: The binding of anti-FAP antibodies with a human IgG1 P329G LALA Fc to human FAP was determined by flow cytometry using human FAP-transfected HEK cells. Briefly, the target cells were harvested with Cell Dissociation buffer, washed with FACS Buffer (PBS+2% FCS+5 mM EDTA+0.25% sodium acide) and seeded into 96-U bottom plates (1×10^5 cells/well). Unlabeled primary antibodies were added to the cells (final concentrations 10 μg/ml to 0.64 ng/ml; 1:5 dilutions) and incubated for 30 min at 4° C. After washing, cells were incubated with a PE-conjugated AffiPure F(ab)₂ Fragment Goat anti-human IgG, Fc□ specific (Jackson Immunoresearch) for 30 min at 4° C. in the dark. Afterwards, cells were washed, fixed and measured using a BD FACS LSR Fortessa™.

Binder	EC50
B6	0.089 µg/mL

molecular target: T4, His-tagged human FAP ectodomain (human, UniProt Q12884 27-760); test: SPR, His-tagged human FAP ectodomain as ligand
T4 construct: also called hu FAP ectodomain+poly-lys-tag+his6-tag; His-tagged FAP antigen

Binder	Kd	koff	kon
B7	0.21 nM	5.2e-05 s⁻¹	250000 M⁻¹ s⁻¹

molecular target: T2, human CD40 expressed on cells; test: cell-based or functional assay

Binder	EC50, two cell line bridging assay (SEAP of HEK-Blue CD40L reporter cells with FAP-expressing WM-266-4 cells)
B8	26.5 pM
B9	2.5 pM
B10	13.2 pM

molecular target: T2, human CD40 expressed on cells; test: flow cytometry, Raji cells;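 further: cell binding of antibodies to Raji cells detected by flow cytometry using an Alexa488-labelled anti-human IgG secondary antibody, primary incubation 1 h at 4 °C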
Method: CD40 positive cells (Raji cells) were detatched from the culture bottle using Trypsin and were counted using a Casy cell counter. After pelleting at 4° C., the cells were resuspended in FACS Buffer (2.5% FCS in PBS), adjusted to 2.0E+06 cells/mL, and dispensed to 96-well PP V-bottom-plates (25 μL/well=5.0E+04Zellen/well).
The CD40 specific antibodies were adjusted to 20 μg/mL in FACS buffer, resulting in a final concentration of 10 μg/mL. 20 μl were added to 25 μl cell suspension and incubated for 1 h at 4° C. The cells were then washed twice in FACS buffer. After washing, the cells were resuspended in 50 μL FACS-buffer containing secondary antibody (<huIgG>-Alexa488, c=10 μg/mL) and incubated 1 h bei 4° C. The cells were then washed twice in FACS buffer and resuspended in 70 μl/well FACS buffer for measurement using a FACS Canto (BD, Pharmingen).

Binder	EC50
B11	0.13 µg/mL
B12	0.14 µg/mL
B13	0.14 µg/mL
B14	0.11 µg/mL
B15	0.12 µg/mL

molecular target: T5, human CD40 extracellular domain with C-terminal His-AviTag (human, UniProt P25942 21-193); test: SPR, antibody captured, CD40 ECD analyte;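 further: biacore SPR at 25 °C in PBS-T pH 7.4, CD40 ECD analyte from 300 nM in 1:3 series, 300 s association, up to 1200 s dissociation, double-referenced, Langmuir 1:1 fit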
T5 construct: not shown: C-terminal His-AviTag

Binder	Kd	koff	kon
B11	2.5 nM	0.00606 s⁻¹	2.46e+06 M⁻¹ s⁻¹
B12	2.6 nM	0.00651 s⁻¹	2.53e+06 M⁻¹ s⁻¹
B13	3 nM	0.00795 s⁻¹	2.63e+06 M⁻¹ s⁻¹
B14	3.2 nM	0.00816 s⁻¹	2.58e+06 M⁻¹ s⁻¹
B15	2.7 nM	0.00662 s⁻¹	2.5e+06 M⁻¹ s⁻¹
